Literature values, collected in publication PMC12283743.
pKd: −log10 of the molar value.

Tested on: H. pylori surface recombinant antigen (not named) (Helicobacter pylori)
Settings: target of the Kd cut off in the material (recombinant antigen or cells); Sensor only: bacteria incubated 40 min on the aptamer electrode, detection in PBS pH 7.0 (0.1 M for CV), room temperature; conditions of the cited Kd not given

In the case of “AGTGTGCTCTTCTCAGGTCTCGGCGCGGTTGTGGGTACCTAGGGTTGTTGTTGCTTCTCAGCAGTGTCTCAGCATACGCA [H. pylori aptamer]”, the pKd is given as 7.59.
